Measured values from patent US20140348865A1, “[…] ON AN HIV-1 V1V2 SITE-OF-VULNERABILITY” (The United States of America, as represented by the …, priority 2011, published 2014).

What was measured:
[1] = molecular target: Env of HIV-1 strain 6631 (pseudovirus) (HIV-1)
[2] = molecular target: Env of HIV-1 strain 3873 (pseudovirus) (HIV-1)
[3] = molecular target: Env of HIV-1 strain 6322 (pseudovirus) (HIV-1)
[4] = molecular target: Env of HIV-1 strain 6471 (pseudovirus) (HIV-1)
[5] = molecular target: Env of HIV-1 strain ZM135 (pseudovirus) (HIV-1)
[6] = molecular target: Env of HIV-1 strain CNE30 (pseudovirus) (HIV-1)
epitope-scaffold 2ZJR_B = assay: ELISA, antibody dilution series on the scaffold
[7] = molecular target: Env of HIV-1 strain 6405 (pseudovirus) (HIV-1)
[8] = molecular target: Env of HIV-1 strain X2088 (pseudovirus) (HIV-1)
[9] = molecular target: Env of HIV-1 strain A03349M1 (pseudovirus) (HIV-1)

monoclonal antibody PG9
neutralization IC80 (3637.V5.C3 (HIV-1)): > 50 µg/mL
neutralization IC80 (ZM176.66 (HIV-1)): 0.05 µg/mL
neutralization IC80 (0077_V1_C16 (HIV-1)): 0.343 µg/mL
neutralization IC80 (6644.V2.C33 (HIV-1)): 0.12 µg/mL
neutralization IC80 (BR025.9 (HIV-1)): 0.215 µg/mL
neutralization IC80 (96ZM651_02 (HIV-1)): > 50 µg/mL
neutralization IC80 (DU156.12 (HIV-1)): 0.143 µg/mL
neutralization IC80 (ZM214.15 (HIV-1)): > 50 µg/mL
neutralization IC80 [1]: > 50 µg/mL
neutralization IC80 (SO18.18 (HIV-1)): 0.227 µg/mL
neutralization IC80 (ZM197.7 (HIV-1)): 1.92 µg/mL
neutralization IC80 (CH181.12 (HIV-1)): 0.04 µg/mL
neutralization IC80 [2]: > 50 µg/mL
neutralization IC80 (CNE58 (HIV-1)): 0.068 µg/mL
neutralization IC80 (ZM146.7 (HIV-1)): 6.78 µg/mL
neutralization IC80 (TV1.29 (HIV-1)): 0.044 µg/mL
neutralization IC80 [3]: > 50 µg/mL
neutralization IC80 (CNE31 (HIV-1)): > 50 µg/mL
neutralization IC80 (CNE15 (HIV-1)): < 0.023 µg/mL
neutralization IC80 [4]: > 50 µg/mL
neutralization IC80 (DU172.17 (HIV-1)): 0.899 µg/mL
neutralization IC80 (DU151.02 (HIV-1)): 0.057 µg/mL
neutralization IC80 (TZA125.17 (HIV-1)): 1.21 µg/mL
neutralization IC80 (CH117.4 (HIV-1)): 0.03 µg/mL
neutralization IC80 [5]: > 50 µg/mL
neutralization IC80 (CNE7 (HIV-1)): 4.5 µg/mL
neutralization IC80 (ZM106.9 (HIV-1)): 6.58 µg/mL
neutralization IC80 (CAP45.G3 (HIV-1)): < 0.023 µg/mL
neutralization IC80 (CAP244.D3 (HIV-1)): 0.362 µg/mL
neutralization IC80 (3168.V4.C10 (HIV-1)): 0.657 µg/mL
neutralization IC80 (CNE53 (HIV-1)): 0.809 µg/mL
neutralization IC80 (6785.V5.C14 (HIV-1)): 0.094 µg/mL
neutralization IC80 (CAP210.E8 (HIV-1)): 0.501 µg/mL
neutralization IC80 (ZM109.4 (HIV-1)): 2.64 µg/mL
neutralization IC80 (ZM215.8 (HIV-1)): 0.228 µg/mL
neutralization IC80 (CNE40 (HIV-1)): 20 µg/mL
neutralization IC80 (TZBD.02 (HIV-1)): 1.3 µg/mL
neutralization IC80 (DU422.01 (HIV-1)): 15.8 µg/mL
neutralization IC80 (MW965.26 (HIV-1)): 49.9 µg/mL
neutralization IC80 (DU123.06 (HIV-1)): 0.477 µg/mL
neutralization IC80 [6]: > 50 µg/mL
neutralization IC80 (ZA012.29 (HIV-1)): > 50 µg/mL
EC50 (read off the curve) (epitope-scaffold 2ZJR_B): 0.1 µg/mL
neutralization IC80 (3337_V2_C6 (HIV-1)): > 50 µg/mL
neutralization IC80 (57128.vrc15 (HIV-1)): 0.665 µg/mL
neutralization IC80 (231965.c1 (HIV-1)): > 50 µg/mL
neutralization IC80 (UG024.2 (HIV-1)): > 50 µg/mL
neutralization IC80 (ZM233.6 (HIV-1)): < 0.023 µg/mL
neutralization IC80 (ZM55.28a (HIV-1)): 11.5 µg/mL
neutralization IC80 [7]: > 50 µg/mL
neutralization IC80 (UG021.16 (HIV-1)): > 50 µg/mL
neutralization IC80 (3326_V4_C3 (HIV-1)): 0.111 µg/mL
neutralization IC80 (NKU3006.ec1 (HIV-1)): > 50 µg/mL
neutralization IC80 [8]: > 50 µg/mL
neutralization IC80 (SIVmac251.30.SG3 (SIV)): > 50 µg/mL
neutralization IC80 (3817.v2.c59 (HIV-1)): 0.028 µg/mL
neutralization IC80 [9]: > 50 µg/mL
neutralization IC80 (SVA.MLV): > 50 µg/mL
neutralization IC80 (ZM249.1 (HIV-1)): 0.408 µg/mL
neutralization IC80 (3016.v5.c45 (HIV-1)): > 50 µg/mL
neutralization IC80 (ZM53.12 (HIV-1)): 0.17 µg/mL
